Experiments:
[1] = biological target: GABARAP WT (human GABARAP 1-116) (human, UniProt O95166 1-116); test: ITC
[2] = biological target: T1, Atg8 (1-116) K26P (S. cerevisiae, UniProt P38182 1-116, K26P); test: ITC
T1 sequence: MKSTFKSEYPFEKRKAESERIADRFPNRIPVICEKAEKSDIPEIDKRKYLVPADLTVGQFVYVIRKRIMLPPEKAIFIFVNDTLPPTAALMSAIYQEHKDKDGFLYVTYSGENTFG

GABARAP WT (human GABARAP 1-116), sequence (O95166 1-116): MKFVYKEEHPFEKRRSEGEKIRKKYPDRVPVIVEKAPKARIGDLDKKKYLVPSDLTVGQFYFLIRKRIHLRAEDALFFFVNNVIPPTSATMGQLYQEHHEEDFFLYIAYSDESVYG

Row | Binder | Kd [1] | Kd [2]
1 | GPEEDTDTEEGDDFELLDQSELDQIESELY [FAM134B444-470 WT peptide] | 0.14 µM | 
2 | DDFELLDQY [FAM134B453-460 (Δhelix) peptide] | 2.54 µM | 
3 | GPHSSGNGNDFEMITKEELEQQTDY [SEC62355-376 WT peptide] | 0.19 µM | 
4 | TSTEFPNDADFMEDILDET [Atg40 peptide Y242A] |  | 32.7 µM
5 | TSTEAPNDYDFMEDILDET [Atg40 peptide F238A] |  | 4.31 µM
6 | NDFEMITKY [SEC62361-368 (Δhelix) peptide] | 3.38 µM | 
7 | EFPNDYDFAEDILDET [Atg40^237–252 M245A peptide] |  | 21.7 µM
8 | GPEEDTDTEEGDDFALLDQSALDQIESELY [FAM134B444-470 E456A E462A peptide] | 3.39 µM | 
